The labels stand for the following.
B1: Transcription intermediary factor 1-beta, residues 620 to 671; numbered along this chain, Q13263 (parent)
chain: TLDDSATICRVCQKPGDLVMCNQCEFCFHLDCHLPALQDVPGEEWSCSLCHV

These results are taken from the Human Domainome abundance scans (Beltran et al. 2025).

± gives the uncertainty stated by the source.

This data set covers variants of B1. Nature of the data set: abundance fitness (aPCA) (normalised: wild type 0, dead -1); higher = more abundant; growth selection in yeast, the domain comes from the species named. The following applies: Homo sapiens.
For the variant N22P, the abundance fitness was -0.382 ± 0.19. The value for N22Q was -0.116 ± 0.18; that for N22I was -0.316 ± 0.21; that for N22K was 0.05 ± 0.17. Turning to N22F, the abundance fitness was -0.281 ± 0.23. Take N22T: the abundance fitness was -0.182 ± 0.13. As to N22H, the abundance fitness is -0.449 ± 0.23. The value for N22C was -0.092 ± 0.22; that for N22G was -0.27 ± 0.098; that for N22R was -0.11 ± 0.12.

Consider N22E, for which the abundance fitness turned out to be 0.094 ± 0.15. Then N22S, with -0.066 ± 0.12; and N22A, with -0.232 ± 0.11; and N22M, with -0.337 ± 0.16. Consider N22L, for which the abundance fitness is -0.561 ± 0.11. For the variant C21F, the abundance fitness is -0.962 ± 0.26. Then C21N, with -0.565 ± 0.21. Then C21P, with -0.697 ± 0.36. The value for C21A was -0.995 ± 0.16; that for C21G was -0.871 ± 0.11.

Regarding C21W, the abundance fitness is -1.14 ± 0.26. As to C21M, the abundance fitness is -1.24 ± 0.35.

As for C21E, the abundance fitness was -0.434 ± 0.16.

C21D: the abundance fitness was -0.575 ± 0.18. The value for C21H was -0.445 ± 0.25; that for C21V was -0.826 ± 0.11. The value for C21Q was -0.8 ± 0.35. C21T: the abundance fitness is -0.95 ± 0.27. The value for C21I was -0.807 ± 0.29. The value for C21L was -0.837 ± 0.13; that for C21S was -0.968 ± 0.15; that for V19F was -0.311 ± 0.15. Turning to V19S, the abundance fitness was -0.613 ± 0.16. The value for V19Q was -0.402 ± 0.27; that for V19H was 0.116 ± 0.3; that for V19D was 0.025 ± 0.33. The value for V19M was -0.157 ± 0.15; that for V19C was -0.536 ± 0.21; that for V19W was 0 ± 0.12. The value for V19T was -0.314 ± 0.16; that for V19A was -0.58 ± 0.14; that for V19R was -0.364 ± 0.11. With V19P, the abundance fitness is -0.943 ± 0.33. Regarding V19G, the abundance fitness was -0.852 ± 0.14. Then V19N, with -0.556 ± 0.34; and V19E, with -0.519 ± 0.17.

Regarding V19L, the abundance fitness is -0.171 ± 0.1. Then V19I, with 0.008 ± 0.23. Then F28A, with -0.098 ± 0.13; and F28V, with -0.227 ± 0.092. The value for F28W was 0.093 ± 0.11; that for F28D was -0.554 ± 0.34; that for F28K was -0.427 ± 0.23. For the variant F28Q, the abundance fitness was -0.549 ± 0.31. The value for F28G was -0.593 ± 0.12; that for F28M was -0.318 ± 0.14; that for F28S was -0.424 ± 0.12. Then F28T, with -0.278 ± 0.12; and F28C, with -0.211 ± 0.15.

Turning to F28H, the abundance fitness is -0.346 ± 0.35. The value for F28R was -0.284 ± 0.093; that for F28Y was -0.09 ± 0.17. Then F28I, with -0.016 ± 0.16; and F28E, with -0.321 ± 0.14. The value for F28N was -0.724 ± 0.28. Take F28L: the abundance fitness was -0.393 ± 0.11. With H29C, the abundance fitness is -0.67 ± 0.2.

H29D: the abundance fitness was -0.883 ± 0.29.

As to H29A, the abundance fitness was -1.01 ± 0.21. Then L18M, with -0.599 ± 0.25.

For the variant L18Y, the abundance fitness was -0.632 ± 0.24.

On to L18S, for which the abundance fitness was -0.789 ± 0.15. Consider L18K, for which the abundance fitness is -0.636 ± 0.23.

Take L18W: the abundance fitness is -0.834 ± 0.17. The value for L18P was -0.729 ± 0.24; that for L18I was -0.371 ± 0.15. The value for L18R was -0.889 ± 0.13; that for L18T was 0.162 ± 0.15.

On to L18N, for which the abundance fitness was -0.662 ± 0.23. Consider L18Q, for which the abundance fitness was -0.483 ± 0.3. The value for C24F was -0.965 ± 0.22. The value for C24N was -1.19 ± 0.4; that for C24A was -0.666 ± 0.14; that for C24T was -0.842 ± 0.18. The value for C24R was -0.685 ± 0.099; that for C24G was -0.541 ± 0.12. On to C24K, for which the abundance fitness was -0.894 ± 0.27.

Consider C24H, for which the abundance fitness was -1.01 ± 0.24. The value for C24P was -0.928 ± 0.28; that for C24I was -1.07 ± 0.36. The value for C24M was -0.918 ± 0.25. The value for C24D was -0.769 ± 0.27.

For C24V, the abundance fitness was -1.08 ± 0.17. Then C24W, with -1.04 ± 0.19. The value for C24S was -1 ± 0.17. The value for E25L was -0.134 ± 0.1. Regarding E25H, the abundance fitness is -0.578 ± 0.4. The value for E25V was -0.493 ± 0.11; that for E25F was -0.113 ± 0.18. The value for E25T was -0.024 ± 0.12. The value for E25M was -0.286 ± 0.28; that for E25I was -0.298 ± 0.21; that for E25S was 0.059 ± 0.11. Turning to E25P, the abundance fitness was -0.66 ± 0.24.

As for E25C, the abundance fitness is -0.052 ± 0.16. The value for E25N was -0.822 ± 0.39. Turning to E25Y, the abundance fitness was -0.061 ± 0.19.

Regarding E25Q, the abundance fitness was -0.077 ± 0.19.

On to E25W, for which the abundance fitness was -0.322 ± 0.13. The value for E25G was -0.27 ± 0.1. Take E25K: the abundance fitness was -0.228 ± 0.19. Then E25R, with -0.136 ± 0.12. Then E25A, with -0.227 ± 0.12; and E25D, with -0.3 ± 0.26. The value for Q23L was -0.199 ± 0.1. Regarding Q23I, the abundance fitness was -0.373 ± 0.21. As to Q23P, the abundance fitness is -0.93 ± 0.21. Regarding Q23W, the abundance fitness is -0.383 ± 0.13. Then Q23M, with -0.371 ± 0.16; and Q23S, with -0.089 ± 0.11; and Q23H, with -0.486 ± 0.29. The value for Q23V was -0.214 ± 0.1; that for Q23D was -0.234 ± 0.4; that for Q23A was -0.395 ± 0.12.

In the case of Q23N, the abundance fitness was -0.014 ± 0.21. The value for Q23F was -0.292 ± 0.26; that for Q23K was -0.113 ± 0.21; that for Q23T was -0.066 ± 0.17. Consider Q23Y, for which the abundance fitness is -0.336 ± 0.21. For Q23R, the abundance fitness was -0.172 ± 0.12. The value for Q23C was -0.043 ± 0.13; that for M20W was -0.73 ± 0.14. Then M20P, with 0.067 ± 0.17; and M20L, with -0.391 ± 0.11. The value for M20C was -0.225 ± 0.15; that for M20D was -0.574 ± 0.45. M20I: the abundance fitness was -0.379 ± 0.2. Then M20N, with -0.337 ± 0.17; and M20A, with -0.312 ± 0.12.

With M20F, the abundance fitness is -0.192 ± 0.15. Then M20E, with -0.304 ± 0.12; and M20Y, with -0.296 ± 0.19. Then M20V, with -0.322 ± 0.1; and M20H, with -0.755 ± 0.32. As to M20G, the abundance fitness was -0.29 ± 0.095. Then M20R, with 0.003 ± 0.088; and M20K, with -0.354 ± 0.2; and M20S, with -0.112 ± 0.11. For the variant C27Y, the abundance fitness was determined as 0.002 ± 0.16. The value for F26H was -0.374 ± 0.21; that for F26L was -0.328 ± 0.12; that for F26C was -0.029 ± 0.24. The value for F26N was -0.122 ± 0.21; that for F26A was -0.063 ± 0.11; that for F26E was 0.04 ± 0.15. Then F26Q, with 0.082 ± 0.16; and F26R, with -0.045 ± 0.097. Regarding F26S, the abundance fitness is -0.192 ± 0.1.

For the variant F26M, the abundance fitness was -0.108 ± 0.2. In the case of F26P, the abundance fitness is -0.993 ± 0.24. The value for F26T was -0.563 ± 0.17. In the case of F26K, the abundance fitness came out at 0.155 ± 0.13. Then F26W, with -0.399 ± 0.13; and F26G, with 0.121 ± 0.1. The value for F26D was -0.034 ± 0.22.

Turning to F26V, the abundance fitness is -0.33 ± 0.11. The value for F26I was -0.812 ± 0.34.
